IntAct's records for PubMed 25910212

B1: Pyridoxine-5'-phosphate oxidase (Homo sapiens), Q9NVS9 (parent)
chain: MTCWLRGVTATFGRPAEWPGYLSHLCGRSAAMDLGPMRKSYRGDREAFEETHLTSLDPVKQFAAWFEEAVQCPDIGEANAMCLATCTRDGKPSARMLLLKGFGKDGFRFFTNFESRKGKELDSNPFASLVFYWEPLNRQVRVEGPVKKLPEEEAECYFHSRPKSSQIGAVVSHQSSVIPDREYLRKKNEELEQLYQDQEVPKPKSWGGYVLYPQVMEFWQGQTNRLHDRIVFRRGLPTGDSPLGPMTHRGEEDWLYERLAP
B2: U4/U6 small nuclear ribonucleoprotein Prp3 (Homo sapiens), O43395 (parent)
chain: MALSKRELDELKPWIEKTVKRVLGFSEPTVVTAALNCVGKGMDKKKAADHLKPFLDDSTLRFVDKLFEAVEEGRSSRHSKSSSDRSRKRELKEVFGDDSEISKESSGVKKRRIPRFEEVEEEPEVIPGPPSESPGMLTKLQIKQMMEAATRQIEERKKQLSFISPPTPQPKTPSSSQPERLPIGNTIQPSQAATFMNDAIEKARKAAELQARIQAQLALKPGLIGNANMVGLANLHAMGIAPPKVELKDQTKPTPLILDEQGRTVDATGKEIELTHRMPTLKANIRAVKREQFKQQLKEKPSEDMESNTFFDPRVSIAPSQRQRRTFKFHDKGKFEKIAQRLRTKAQLEKLQAEISQAARKTGIHTSTRLALIAPKKELKEGDIPEIEWWDSYIIPNGFDLTEENPKREDYFGITNLVEHPAQLNPPVDNDTPVTLGVYLTKKEQKKLRRQTRREAQKELQEKVRLGLMPPPEPKVRISNLMRVLGTEAVQDPTKVEAHVRAQMAKRQKAHEEANAARKLTAEQRKVKKIKKLKEDISQGVHISVYRVRNLSNPAKKFKIEANAGQLYLTGVVVLHKDVNVVVVEGGPKAQKKFKRLMLHRIKWDEQTSNTKGDDDEESDEEAVKKTNKCVLVWEGTAKDRSFGEMKFKQCPTENMAREHFKKHGAEHYWDLALSESVLESTD
partner: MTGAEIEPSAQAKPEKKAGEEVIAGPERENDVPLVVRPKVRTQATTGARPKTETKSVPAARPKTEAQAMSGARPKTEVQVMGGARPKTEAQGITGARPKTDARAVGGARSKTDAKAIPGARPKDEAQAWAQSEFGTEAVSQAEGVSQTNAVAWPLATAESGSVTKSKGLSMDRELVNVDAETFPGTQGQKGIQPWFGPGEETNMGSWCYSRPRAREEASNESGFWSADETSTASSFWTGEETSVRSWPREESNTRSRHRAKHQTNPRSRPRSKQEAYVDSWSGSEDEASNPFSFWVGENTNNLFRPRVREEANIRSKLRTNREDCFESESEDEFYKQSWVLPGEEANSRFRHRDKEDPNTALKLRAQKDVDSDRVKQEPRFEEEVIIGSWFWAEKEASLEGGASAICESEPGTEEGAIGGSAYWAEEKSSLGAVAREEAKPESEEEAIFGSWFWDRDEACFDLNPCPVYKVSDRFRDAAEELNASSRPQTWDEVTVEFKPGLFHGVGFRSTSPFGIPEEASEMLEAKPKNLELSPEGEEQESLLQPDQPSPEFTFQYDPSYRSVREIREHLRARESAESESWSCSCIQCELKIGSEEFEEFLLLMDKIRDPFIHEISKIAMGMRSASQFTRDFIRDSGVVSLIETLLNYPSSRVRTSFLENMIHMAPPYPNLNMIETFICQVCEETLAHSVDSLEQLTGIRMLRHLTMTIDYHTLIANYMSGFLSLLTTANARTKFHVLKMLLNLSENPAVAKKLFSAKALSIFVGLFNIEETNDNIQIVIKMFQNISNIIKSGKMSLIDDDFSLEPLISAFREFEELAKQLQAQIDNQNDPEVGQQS
B3: U4/U6 small nuclear ribonucleoprotein Prp31 (Homo sapiens), Q8WWY3 (parent)
chain: MSLADELLADLEEAAEEEEGGSYGEEEEEPAIEDVQEETQLDLSGDSVKTIAKLWDSKMFAEIMMKIEEYISKQAKASEVMGPVEAAPEYRVIVDANNLTVEIENELNIIHKFIRDKYSKRFPELESLVPNALDYIRTVKELGNSLDKCKNNENLQQILTNATIMVVSVTASTTQGQQLSEEELERLEEACDMALELNASKHRIYEYVESRMSFIAPNLSIIIGASTAAKIMGVAGGLTNLSKMPACNIMLLGAQRKTLSGFSSTSVLPHTGYIYHSDIVQSLPPDLRRKAARLVAAKCTLAARVDSFHESTEGKVGYELKDEIERKFDKWQEPPPVKQVKPLPAPLDGQRKKRGGRRYRKMKERLGLTEIRKQANRMSFGEIEEDAYQEDLGFSLGHLGKSGSGRVRQTQVNEATKARISKTLQRTLQKQSVVYGGKSTIRDRSSGTASSVAFTPLQGLEIVNPQAAEKKVAEANQKYFSSMAEFLKVKGEKSGLMST
partner: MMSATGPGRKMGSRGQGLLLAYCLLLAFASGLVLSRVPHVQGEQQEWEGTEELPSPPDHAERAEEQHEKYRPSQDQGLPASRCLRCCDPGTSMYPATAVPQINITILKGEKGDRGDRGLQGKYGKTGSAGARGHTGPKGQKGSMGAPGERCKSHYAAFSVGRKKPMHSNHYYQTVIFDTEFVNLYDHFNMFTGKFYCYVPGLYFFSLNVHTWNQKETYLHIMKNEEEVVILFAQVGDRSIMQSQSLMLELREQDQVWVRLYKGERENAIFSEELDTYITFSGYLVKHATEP
B4: Plasma membrane ascorbate-dependent reductase CYBRD1 (Homo sapiens), Q53TN4 (parent)
chain: MAMEGYWRFLALLGSALLVGFLSVIFALVWVLHYREGLGWDGSALEFNWHPVLMVTGFVFIQGIAIIVYRLPWTWKCSKLLMKSIHAGLNAVAAILAIISVVAVFENHNVNNIANMYSLHSWVGLIAVICYLLQLLSGFSVFLLPWAPLSLRAFLMPIHVYSGIVIFGTVIATALMGLTEKLIFSLRDPAYSTFPPEGVFVNTLGLLILVFGALIFWIVTRPQWKRPKEPNSTILHPNGGTEQGARGSMPAYSGNNMDKSDSELNSEVAARKRNLALDEAGQRSTM
B5: Progranulin (Homo sapiens), P28799 (parent)
chain: MWTLVSWVALTAGLVAGTRCPDGQFCPVACCLDPGGASYSCCRPLLDKWPTTLSRHLGGPCQVDAHCSAGHSCIFTVSGTSSCCPFPEAVACGDGHHCCPRGFHCSADGRSCFQRSGNNSVGAIQCPDSQFECPDFSTCCVMVDGSWGCCPMPQASCCEDRVHCCPHGAFCDLVHTRCITPTGTHPLAKKLPAQRTNRAVALSSSVMCPDARSRCPDGSTCCELPSGKYGCCPMPNATCCSDHLHCCPQDTVCDLIQSKCLSKENATTDLLTKLPAHTVGDVKCDMEVSCPDGYTCCRLQSGAWGCCPFTQAVCCEDHIHCCPAGFTCDTQKGTCEQGPHQVPWMEKAPAHLSLPDPQALKRDVPCDNVSSCPSSDTCCQLTSGEWGCCPIPEAVCCSDHQHCCPQGYTCVAEGQCQRGSEIVAGLEKMPARRASLSHPRDIGCDQHTSCPVGQTCCPSLGGSWACCQLPHAVCCEDRQHCCPAGYTCNVKARSCEKEVVSAQPATFLARSPHVGVKDVECGEGHFCHDNQTCCRDNRQGWACCPYRQGVCCADRRHCCPAGFRCAARGTKCLRREAPRWDAPLRDPALRQLL
partner: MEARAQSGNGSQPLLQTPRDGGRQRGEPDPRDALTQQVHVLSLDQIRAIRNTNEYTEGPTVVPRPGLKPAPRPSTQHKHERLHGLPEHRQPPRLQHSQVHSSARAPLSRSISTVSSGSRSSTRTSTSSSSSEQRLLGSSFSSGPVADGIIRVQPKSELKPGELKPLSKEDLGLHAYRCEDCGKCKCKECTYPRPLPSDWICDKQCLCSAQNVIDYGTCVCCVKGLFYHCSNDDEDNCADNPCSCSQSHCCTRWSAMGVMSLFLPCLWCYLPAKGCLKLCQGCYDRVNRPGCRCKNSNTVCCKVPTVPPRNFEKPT
B6: Myelin proteolipid protein (Homo sapiens), P60201-2 (parent)
chain: MGLLECCARCLVGAPFASLVATGLCFFGVALFCGCGHEALTGTEKLIETYFSKNYQDYEYLINVIHAFQYVIYGTASFFFLYGALLLAEGFYTTGAVRQIFGDYKTTICGKGLSATFVGITYALTVVWLLVFACSAVPVYIYFNTWTTCQSIAFPSKTSASIGSLCADARMYGVLPWNAFPGKVCGSNLLSICKTAEFQMTFHLFIAAFVGAAATLVSLLTFMIAATYNFAVLKLMGRGTKF
partner: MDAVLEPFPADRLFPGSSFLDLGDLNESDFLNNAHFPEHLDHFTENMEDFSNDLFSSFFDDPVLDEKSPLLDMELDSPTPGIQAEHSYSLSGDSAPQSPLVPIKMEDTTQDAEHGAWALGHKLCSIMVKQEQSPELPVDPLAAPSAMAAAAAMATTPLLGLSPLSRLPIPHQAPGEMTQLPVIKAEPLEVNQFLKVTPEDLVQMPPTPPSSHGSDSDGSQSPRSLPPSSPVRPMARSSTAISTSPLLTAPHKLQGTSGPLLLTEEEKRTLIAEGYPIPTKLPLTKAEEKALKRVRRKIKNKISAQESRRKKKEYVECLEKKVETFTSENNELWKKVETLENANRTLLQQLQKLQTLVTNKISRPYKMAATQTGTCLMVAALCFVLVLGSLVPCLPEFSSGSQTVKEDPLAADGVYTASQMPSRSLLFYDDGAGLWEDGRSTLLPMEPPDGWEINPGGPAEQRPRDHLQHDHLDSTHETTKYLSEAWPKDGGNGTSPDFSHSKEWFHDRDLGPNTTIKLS

Variants of: B1
Settings: with AGTRAP

**Q.** R229W was tested. Which “effect of a mutation on the interaction” value did it give?
**A.** The value was “disrupting interaction strength”.

**Q.** R95H was tested. Which “effect of a mutation on the interaction” value did it give?
**A.** Its value is “disrupting interaction strength”.

**Q.** R95C was tested. Which “effect of a mutation on the interaction” value did it give?
**A.** The value was “disrupting interaction strength”.

**Q.** Which “effect of a mutation on the interaction” value does the source give for R116Q here?
**A.** Its value is “with no effect”.

Variants of: B1
Settings: with CMTM5, Q96DZ9-2
CMTM5, Q96DZ9-2, sequence (Q96DZ9 other isoform, or with tags, fused parts or gaps): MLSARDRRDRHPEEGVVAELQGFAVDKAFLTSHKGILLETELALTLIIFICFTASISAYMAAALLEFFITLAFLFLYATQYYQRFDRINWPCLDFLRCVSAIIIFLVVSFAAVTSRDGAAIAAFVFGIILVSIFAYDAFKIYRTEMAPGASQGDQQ

**Q.** For R229W, which “effect of a mutation on the interaction” value is on record?
**A.** Its value is “disrupting interaction strength”.

**Q.** For R95H, which “effect of a mutation on the interaction” value is on record?
**A.** The value was “disrupting interaction strength”.

**Q.** With R95C as the variant, how does the “effect of a mutation on the interaction” value read?
**A.** The value was “disrupting interaction strength”.

**Q.** For R116Q, which “effect of a mutation on the interaction” value is on record?
**A.** The value was “with no effect”.

Variants of: B2
Settings: with gasp2_human GPRASP2, Q96D09

**Q.** T494M was tested. Which “effect of a mutation on the interaction” value did it give?
**A.** The value was “with no effect”.

**Q.** With P493S as the variant, how does the “effect of a mutation on the interaction” value read?
**A.** Its value is “with no effect”.

**Q.** Which “effect of a mutation on the interaction” value does the source give for A489D here?
**A.** Its value is “with no effect”.

Variants of: B3
Settings: with C1QTNF1, Q9BXJ1-2

**Q.** With L107V as the variant, how does the “effect of a mutation on the interaction” value read?
**A.** The value was “with no effect”.

Variants of: B4
Settings: with stx4_human STX4, Q12846
stx4_human STX4, Q12846, sequence (Q12846 whole entry): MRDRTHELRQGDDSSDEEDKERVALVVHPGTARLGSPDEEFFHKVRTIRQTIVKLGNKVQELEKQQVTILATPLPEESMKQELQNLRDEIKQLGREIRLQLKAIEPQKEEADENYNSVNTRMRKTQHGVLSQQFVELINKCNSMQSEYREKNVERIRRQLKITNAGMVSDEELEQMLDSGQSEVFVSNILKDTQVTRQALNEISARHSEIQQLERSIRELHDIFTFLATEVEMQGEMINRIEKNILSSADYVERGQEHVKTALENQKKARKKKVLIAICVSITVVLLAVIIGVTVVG

**Q.** Which “effect of a mutation on the interaction” value does the source give for R226H here?
**A.** The value was “with no effect”.

Variants of: B5
Settings: with spy2_human SPRY2, O43597

**Q.** Which “effect of a mutation on the interaction” value does the source give for P248L here?
**A.** Its value is “with no effect”.

**Q.** With P451L as the variant, how does the “effect of a mutation on the interaction” value read?
**A.** The value was “disrupting interaction strength”.

**Q.** How did the “effect of a mutation on the interaction” value turn out when A9D was run?
**A.** Its value is “disrupting interaction strength”.

**Q.** With R432C as the variant, how does the “effect of a mutation on the interaction” value read?
**A.** Its value is “disrupting interaction strength”.

Variants of: B6
Settings: with cr3l1_human CREB3L1, Q96BA8

**Q.** Which “effect of a mutation on the interaction” value does the source give for W128L here?
**A.** Its value is “disrupting interaction strength”.

**Q.** How did the “effect of a mutation on the interaction” value turn out when A213E was run?
**A.** The value was “disrupting interaction strength”.

**Q.** For P15L, which “effect of a mutation on the interaction” value is on record?
**A.** The value was “disrupting interaction strength”.

**Q.** For L87P, which “effect of a mutation on the interaction” value is on record?
**A.** Its value is “disrupting interaction strength”.
